Target: tropomyosin receptors kinase A (TrkA) (rat (endogenous in PC12)) (UniProt P35739)
Chain of UniProt P35739 (P35739 33-799): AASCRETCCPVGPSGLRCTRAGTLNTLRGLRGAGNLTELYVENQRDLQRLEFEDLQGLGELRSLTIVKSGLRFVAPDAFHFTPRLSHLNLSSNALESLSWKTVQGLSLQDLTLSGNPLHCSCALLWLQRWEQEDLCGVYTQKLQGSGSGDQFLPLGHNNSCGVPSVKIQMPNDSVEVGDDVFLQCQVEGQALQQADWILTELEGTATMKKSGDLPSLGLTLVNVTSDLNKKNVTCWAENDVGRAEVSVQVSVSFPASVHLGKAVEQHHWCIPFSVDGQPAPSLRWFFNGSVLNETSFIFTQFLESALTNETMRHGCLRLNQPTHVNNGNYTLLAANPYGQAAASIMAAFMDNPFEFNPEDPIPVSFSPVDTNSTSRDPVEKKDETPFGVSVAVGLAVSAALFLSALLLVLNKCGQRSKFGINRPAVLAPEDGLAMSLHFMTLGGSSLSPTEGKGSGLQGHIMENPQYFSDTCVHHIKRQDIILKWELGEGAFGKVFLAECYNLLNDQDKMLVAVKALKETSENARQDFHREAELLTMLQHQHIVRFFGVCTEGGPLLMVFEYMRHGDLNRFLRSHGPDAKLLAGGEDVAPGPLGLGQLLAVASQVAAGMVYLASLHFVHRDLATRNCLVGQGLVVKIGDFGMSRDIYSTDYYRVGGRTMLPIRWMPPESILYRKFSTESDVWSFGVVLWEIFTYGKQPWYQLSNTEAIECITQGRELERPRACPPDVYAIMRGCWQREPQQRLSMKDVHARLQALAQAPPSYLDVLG

Row | Substance | phosphorylation of TrkA (Tyr-490), Western blot, PC12 cells, 50 uM peptide with 1 uM CuSO4, 10 min, % of the untreated control [%] | phosphorylation of TrkA (Tyr-490), Western blot, PC12 cells, 50 uM peptide, 10 min, % of the untreated control [%]
1 | d-NGF(1-15) (peptide) | 1020 | 653
2 | NGF(1-14) (peptide) | 825 | 540
